Source: patent US20220298237A1 (KEIO UNIVERSITY, published 2022)

Assays:
[1] = molecular target: T1, oligopeptide ATYPSGHLDM (SEQ ID NO: 1) (human and mouse); assay: ELISA on the immunogen peptide (FIG. 2)
T1 construct: Synthetic peptide; positions 148 to 157 of the human AQP3 polypeptide, identical in mouse; also called peptide used for immunization; oligopeptide 5
T1 peptide: ATYPSGHLDM

[2] = molecular target: T2, mouse AQP3 in lysate of HEK293T cells overexpressing mouse AQP3 and a myc-biotinylated tag (mouse, UniProt Q8R2N1 1-292); assay: ELISA on lysate of HEK293T cells overexpressing mouse AQP3 (FIG. 3)
T2 construct: Cell lysate used in ELISA; also called AQP3 containing cell lysate; not shown: myc-biotinylated tag
T2 sequence (looked up): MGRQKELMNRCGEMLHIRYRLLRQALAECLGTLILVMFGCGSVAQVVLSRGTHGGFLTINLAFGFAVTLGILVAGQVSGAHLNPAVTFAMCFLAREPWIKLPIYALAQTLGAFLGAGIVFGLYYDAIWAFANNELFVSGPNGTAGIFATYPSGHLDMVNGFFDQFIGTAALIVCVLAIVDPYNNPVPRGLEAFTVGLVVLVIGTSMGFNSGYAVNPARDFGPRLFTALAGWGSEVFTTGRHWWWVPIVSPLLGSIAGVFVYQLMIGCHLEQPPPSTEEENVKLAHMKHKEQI
Excerpt: Cell lysate from HEK293T cells overexpressing mouse AQP3 and a myc-biotinylated tag was used in an ELISA assay to measure the binding of antibodies A, B, C, D, E, F, G, H, J, and K to AQP3. Cell lysate from HEK293T cells overexpressing the myc-biotinylated tag but not AQP3 was used as control. […] C. Antibody binding to AQP3 expressing cells

[3] = molecular target: T3, human aquaporin 3 (AQP3) on cells (human, UniProt Q92482 1-292); assay: fluorescence binding assay on HaCaT cells, 10 µg/mL (FIG. 5C)
T3 construct: whole, on cells; Water channel membrane protein; also called human AQP3; AQP3 on HaCaT cells
T3 sequence (looked up): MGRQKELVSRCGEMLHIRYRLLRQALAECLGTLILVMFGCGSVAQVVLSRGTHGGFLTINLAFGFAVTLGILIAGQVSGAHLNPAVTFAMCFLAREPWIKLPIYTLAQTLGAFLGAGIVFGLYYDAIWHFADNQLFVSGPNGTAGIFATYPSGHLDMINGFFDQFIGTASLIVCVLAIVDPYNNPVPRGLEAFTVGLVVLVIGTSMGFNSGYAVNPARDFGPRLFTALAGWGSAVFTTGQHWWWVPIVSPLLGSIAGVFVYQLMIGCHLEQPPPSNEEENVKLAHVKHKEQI

[4] = molecular target: T4, mouse aquaporin 3 (AQP3) on cells (mouse, UniProt Q8R2N1 1-292); assay: fluorescence binding assay on PAM212 cells, 10 µg/mL (FIG. 5B)
T4 construct: whole, on cells; Water channel membrane protein; also called mouse AQP3; AQP3 on PAM212 cells
T4 sequence (looked up): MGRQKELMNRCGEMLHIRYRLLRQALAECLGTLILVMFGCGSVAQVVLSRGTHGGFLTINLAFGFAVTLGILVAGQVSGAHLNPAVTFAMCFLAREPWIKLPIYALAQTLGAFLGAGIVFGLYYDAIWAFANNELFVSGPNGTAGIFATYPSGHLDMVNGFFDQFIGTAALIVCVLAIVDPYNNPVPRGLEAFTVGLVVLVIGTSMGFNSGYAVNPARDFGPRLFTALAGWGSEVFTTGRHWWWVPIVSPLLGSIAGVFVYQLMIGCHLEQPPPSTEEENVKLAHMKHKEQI
Procedure: PAM212 and macrophage cells were reacted with each anti AQP3 antibody (0.1, 1, or 10 μg/mL) at 4° C. for 1 hour. After washing the cells, a fluorescent-labeled secondary antibody was added and the reaction was allowed to occur additionally for 1 hour (4° C.). By measuring the fluorescence intensity, the binding property of each anti AQP3 antibody to cells was obtained.
The assay was also performed using PAM212 cells and antibodies A, B, C, D, E, F, G, H, and J at a concentration of 10 μg/mL. Binding of antibodies C, D, E, G, and J to PAM212 cells was statistically significant.

[5] = molecular target: T1, oligopeptide ATYPSGHLDM (SEQ ID NO: 1); assay: ELISA on coated peptide
Procedure: (§1) To determine the important amino acid residues of an epitope in Loop C involved in binding to specific AQP3 antibody clones, peptides of varying lengths were produced. The sequences of these peptides are shown in column 2 of Table 4.
(§2) The various peptides and AQP3 antibody clones were subjected to ELISA binding analyses. […] The microtiter wells (Costar 2690) were coated with 50 μL of each peptide at 4° C. overnight. The wells were washed 3 times with PBS and blocked with 100 μL of 1% BSA/PBS at 37° C. for 1 hour. Each antibody was adjusted to 1 μg/mL in 1% SBA/PBS as above then serially diluted 1:5 in 1% BSA/PBS. The blocker was discarded and the wells were incubated with 50 μL of antibodies at 37° C. for 1.5 hours. The wells were washed 3 times with PBS and mouse antibodies were detected with 50 μL of goat anti-mouse IgG (H+L) HRP conjugate (ThermoFisher 31438) (1:5,000 in 1% BSA/PBS) and rabbit antibodies were detected with 50 μL of goat anti-rabbit IgG (H+L) HRP conjugate (ThermoFisher 31462) (1:5,000 in 1% BSA/PBS) at 37° C. for 1 hour. The wells were washed 3 times with PBS and developed with 50 μL of HRP substrate at RT for 5 min then stopped with 50 μL of 2N sulfuric acid and binding was measured with a plate reader.

[6] = molecular target: T5, oligopeptide SGPNGTAGIFATYPS (SEQ ID NO: 94); assay: ELISA on coated peptide
T5 construct: Synthetic peptide, part of Loop C of AQP3
T5 peptide: SGPNGTAGIFATYPS
Procedure: as §1, §2

[7] = molecular target: T6, oligopeptide TYPSGHLDM (SEQ ID NO: 96); assay: ELISA on coated peptide
T6 construct: Synthetic peptide, part of Loop C of AQP3
T6 peptide: TYPSGHLDM
Procedure: as §1, §2

[8] = molecular target: T7, oligopeptide YPSGHLDM (SEQ ID NO: 97); assay: ELISA on coated peptide
T7 construct: Synthetic peptide, part of Loop C of AQP3; first diluted in DMSO
T7 peptide: YPSGHLDM
Procedure: as §1, §2

[9] = molecular target: T8, oligopeptide PSGHLDM (SEQ ID NO: 98); assay: ELISA on coated peptide
T8 construct: Synthetic peptide, part of Loop C of AQP3
T8 peptide: PSGHLDM
Procedure: as §1, §2

[10] = molecular target: T9, oligopeptide SGHLDM (SEQ ID NO: 99); assay: ELISA on coated peptide
T9 construct: Synthetic peptide, part of Loop C of AQP3
T9 peptide: SGHLDM
Procedure: as §1, §2

[11] = molecular target: T10, oligopeptide GHLDM (SEQ ID NO: 100); assay: ELISA on coated peptide
T10 construct: Synthetic peptide, part of Loop C of AQP3
T10 peptide: GHLDM
Procedure: as §1, §2

[12] = molecular target: T11, oligopeptide ATYPSGHLD (SEQ ID NO: 101); assay: ELISA on coated peptide
T11 construct: Synthetic peptide, part of Loop C of AQP3
T11 peptide: ATYPSGHLD
Procedure: as §1, §2

[13] = molecular target: T12, oligopeptide ATYPSGHL (SEQ ID NO: 102); assay: ELISA on coated peptide
T12 construct: Synthetic peptide, part of Loop C of AQP3
T12 peptide: ATYPSGHL
Procedure: as §1, §2

[14] = molecular target: T13, oligopeptide ATYPSGH (SEQ ID NO: 103); assay: ELISA on coated peptide
T13 construct: Synthetic peptide, part of Loop C of AQP3
T13 peptide: ATYPSGH
Procedure: as §1, §2

[15] = molecular target: T14, oligopeptide ATYPSG (SEQ ID NO: 104); assay: ELISA on coated peptide
T14 construct: Synthetic peptide, part of Loop C of AQP3
T14 peptide: ATYPSG
Procedure: as §1, §2

[16] = molecular target: T15, oligopeptide TAGIFATYPSGHLDM (SEQ ID NO: 105); assay: ELISA on coated peptide
T15 construct: Synthetic peptide, part of Loop C of AQP3
T15 peptide: TAGIFATYPSGHLDM
Procedure: as §1, §2

[17] = molecular target: T16, oligopeptide AGIFATYPSGHLDM (SEQ ID NO: 106); assay: ELISA on coated peptide
T16 construct: Synthetic peptide, part of Loop C of AQP3
T16 peptide: AGIFATYPSGHLDM
Procedure: as §1, §2

[18] = molecular target: T17, oligopeptide GIFATYPSGHLDM (SEQ ID NO: 107); assay: ELISA on coated peptide
T17 construct: Synthetic peptide, part of Loop C of AQP3
T17 peptide: GIFATYPSGHLDM
Procedure: as §1, §2

[19] = molecular target: T18, oligopeptide IFATYPSGHLDM (SEQ ID NO: 108); assay: ELISA on coated peptide
T18 construct: Synthetic peptide, part of Loop C of AQP3
T18 peptide: IFATYPSGHLDM
Procedure: as §1, §2

[20] = molecular target: T19, oligopeptide FATYPSGHLDM (SEQ ID NO: 109); assay: ELISA on coated peptide
T19 construct: Synthetic peptide, part of Loop C of AQP3
T19 peptide: FATYPSGHLDM
Procedure: as §1, §2

[21] = molecular target: T1, oligopeptide ATYPSGHLDM (SEQ ID NO: 1); assay: ELISA on peptide SEQ ID NO:1, IgG, 50% binding response (FIG. 16A)

B1: Antibody K (antibody, mouse IgG2a, kappa, V domains shown)
VH: QVQLKQSGAELVRPGTSVKVSCKASGYAFTNYLIEWVKQRPGQGLEWIGVINPGSGGTNYNEKFKGKATLTADKSSSTAYMQLSSLTSEDSAVYFCARWGFYYAMDYWGQGTSVTVSS
VL: DIVMTQSPSSLSASLGERVSLTCRASQEISGYLSWLQQKPDGTIKRLIYAASTLDSGVPKRFSGSRSGSDYSLTISSLESEDFADYYCLQYASYPLTFGAGTKLEIKR
notes: also called anti AQP3 antibody K
B1: binds [1]; binds [2].

B2: Antibody D (antibody, mouse IgG2a, kappa, V domains shown)
VH: EVQLQQSGAELVRPGASVTLSCKASGYTFTDYEMHWVQQTPVHGLEWIGGIDPETGGTGYNQKFKGKAILTADKSSSTAYMELRSLTSEDSAVYFCTRHGSYAMDYWGQGTSVTVSS
VL: DIVMTQSPKFMSTSVGDRVSITCKASQDVSTAVAWYQQKPGQSPKLLIYWASTRHTGVPDRFTGSGSGTDYTLTISSVQAEDLALYYCQQHYSTPPTFGGGTRLEIKR
notes: also called anti AQP3 antibody D
B2: binds [3]; binds [4]; binds [2].

B3: Antibody A (antibody, mouse IgG2a, kappa, V domains shown)
VH: QVQLQQPGAELVRPGASVTLSCKASGYTFTDYEMHWVKQTPVHGLEWIGGVDPETGGTGYNQKFRGKAILTADKSSSTAYMELRSLTSEDSAVYYCARHGGSFYAMDYWGQGTSVTVSS
VL: DIVMTQSPKFMSTSVGDRVSITCKASQDVSTAVAWYQQKPGQSPKLLIYWASTRHTGVPDRFTGSGSGTDYTLTISSVQAEDLALYYCQQHYSTPPTFGGGTKLELKR
notes: also called anti AQP3 antibody A
B3: binds [2].

B4: Antibody F (antibody, mouse IgG2a, kappa, V domains shown)
VH: QVQLKESGPELVKPGASVKISCKASGYTFTDYYINWVKQRPGQGLEWIGWIFPGSGSTYYNEKFKGKATLTVDKSSSTAYMLLSSLTSEDSAVYFCADYGSSYRYFDVWGAGTTVTVSS
VL: DIVMTQSPAILSASPGEKVTMTCRASSSVSYMHWYQQKPGSSPKPWIYATSYLASGVPARFSGSGSGTSYSLTIGRVEAEDAATYYCQQWSSNPLTFGAGTKLELKR
notes: also called anti AQP3 antibody F; Antiboy F
B4: binds [2].

B5: Antibody C (antibody, mouse IgG2a, kappa, V domains shown)
VH: QVQLKQSGAELARPGASVKLSCKASGYNFKSYGISWVKQRTGQGLEWIGEIYPGSGNTYYNEKLKGKATLTADKSSSTAYMELRSLTSEDSAVYFCARTYGYDSFPWFAYWGQGTLVTVSS
VL: DIVMTQAAPSVPVTPGESVSISCRSSKSLLHSNGNTYLYWFLQRPGQSPQLLIYRVSNLASGVPDRFSGSGSGTAFTLRISRVEAEDEGVYYCMQHLEYPFTFGAGTKLEIKR
notes: also called anti AQP3 antibody C
For B5, the “binding signal (plate reader)” value [5] was 2.21, the “binding signal (plate reader)” value [6] was 0.045 and the “binding signal (plate reader)” value [7] was 1.79. The “binding signal (plate reader)” value [8] was 1.58, the “binding signal (plate reader)” value [9] was 0.271 and the “binding signal (plate reader)” value [10] was 0.048. For the same binder, the “binding signal (plate reader)” value [11] was 0.043, the “binding signal (plate reader)” value [12] was 2.52 and the “binding signal (plate reader)” value [13] was 1.69. The “binding signal (plate reader)” value [14] was 0.047, the “binding signal (plate reader)” value [15] was 0.044 and the “binding signal (plate reader)” value [16] was 2.81. The “binding signal (plate reader)” value [17] was 2.97, the “binding signal (plate reader)” value [18] was 2.92 and the “binding signal (plate reader)” value [19] was 2.8. For the same binder, the “binding signal (plate reader)” value [20] was 2.8, the binding result [3] was “binds” and the binding result [4] was “binds”. The EC50 [21] was roughly 0.1 µg/mL and the binding result [2] was “binds”.

B6: Antibody E (antibody, mouse IgG2a, kappa, V domains shown)
VH: EVKLLESGAELVRPGASVTLSCKASGYTFTDYEMHWVKQTPVHGLEWIGGIDPESGGTGYNQKFKGKAILTADKSSSTAYMELRSLTSEDSAVYFCTRSGYYGSPLLDYWGQGTTLTVSS
VL: QIVLSQSPAIMSASLGERVTMTCTASSSVSSSYLHWYQQKPGSSPKLWIYSTSNLASGVPARFSGSGSGTSYSLTISSMEAEDAATYYCHQYHRSPPTFGAGTKLEIKR
notes: also called anti AQP3 antibody E; Antiboy E
B6: binds [1]; binds [3]; binds [4]. B6: binds [2].

B7: Antibody B (antibody, mouse IgG2a, kappa, V domains shown)
VH: EVQLVESGGDLVKPGGSLKLSCAASGFTFSSYGMSWVRQTPDKRLEWVATISRGSIYTYYPDSVKGRFTISRDNAKNTLYLQMSSLKSEDTAMYYCARLSLYDYDGARYTMDYWGQGTSVTVSS
VL: DIVMTQSPKFMSTSVGDRVSITCKASQDVGTAVAWYQQKPGQSPKLLIYWASTRHTGVPDRFTGSGSGTDFTLTISNVQSEDLADYFCQQYSSYHTFGAGTKLELKR
notes: also called anti AQP3 antibody B
B7: binds [1]; binds [2].
